B1: LOXL2 (parent)
chain: RLLRFSSQIHNNGQSDFRPKNGRH
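Note: lentivirally expressed fusions sorted by FACS into six bins by GFP to DsRed ratio, PSI derived from sequencing read proportions per bin multiplied by bin number.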

In the series the parent is B1. Kind of series: protein stability index of a GFP-peptide fusion (GPS, HEK-293T) (PSI 1-6); higher = more stable. Particulars: c terminus: a fixed tail appended.
Consider RLLRFSSQIHNIGQSDFRPKNGRH [N12I], for which the protein stability index came to 2.27.

Regarding RLLRFSSQIHNYGQSDFRPKNGRH [N12Y], the protein stability index came to 2.39.

For the variant RLLRFSSQIHNEGQSDFRPKNGRH [N12E], the protein stability index amounted to 2.57.

RLLRFSSQIHNTGQSDFRPKNGRH [N12T]: the protein stability index stood at 2.72.

Regarding RLLRFSSQIHNRGQSDFRPKNGRH [N12R], the protein stability index is 2.52.

RLLRFSSQIHNQGQSDFRPKNGRH [N12Q]: the protein stability index came to 2.57.

Consider RLLRFSSQIHNCGQSDFRPKNGRH [N12C], for which the protein stability index amounted to 2.36.

On to RLLRFSSQIHNFGQSDFRPKNGRH [N12F], for which the protein stability index came to 1.74.

As to RLLRFSSQIHNMGQSDFRPKNGRH [N12M], the protein stability index stood at 2.36.

For RLLRFSSQIHNLGQSDFRPKNGRH [N12L], the protein stability index came to 2.15.

On to RLLRFSSQIHNWGQSDFRPKNGRH [N12W], for which the protein stability index amounted to 2.55.

Turning to RLLRFSSQIHNVGQSDFRPKNGRH [N12V], the protein stability index was 2.87.

For RLLRFSSQIHNAGQSDFRPKNGRH [N12A], the protein stability index stood at 2.89.

For the variant RLLRFSSQIHNHGQSDFRPKNGRH [N12H], the protein stability index is 2.59.

On to RLLRFSSQIHNPGQSDFRPKNGRH [N12P], for which the protein stability index was determined as 3.15.

As to RLLRFSSQIHNDGQSDFRPKNGRH [N12D], the protein stability index is 3.69.

For RLLRFSSQIHNGGQSDFRPKNGRH [N12G], the protein stability index stood at 3.16.

Regarding RLLRFSSQIHNKGQSDFRPKNGRH [N12K], the protein stability index worked out at 2.65.

For the variant RLLRFSSQIHNSGQSDFRPKNGRH [N12S], the protein stability index was 3.25.

In the case of RLLRFSSQIHNNEQSDFRPKNGRH [G13E], the protein stability index is 3.31.

With RLLRFSSQIHNNFQSDFRPKNGRH [G13F], the protein stability index was determined as 2.25.

Consider RLLRFSSQIHNNCQSDFRPKNGRH [G13C], for which the protein stability index came to 1.97.

For RLLRFSSQIHNNAQSDFRPKNGRH [G13A], the protein stability index came out at 2.48.

RLLRFSSQIHNNDQSDFRPKNGRH [G13D]: the protein stability index came out at 3.19.

Consider RLLPFSSQIHNNGQSDFRPKNGRH [R4P], for which the protein stability index worked out at 3.86.

For RLLQFSSQIHNNGQSDFRPKNGRH [R4Q], the protein stability index came to 2.57.

For RLLYFSSQIHNNGQSDFRPKNGRH [R4Y], the protein stability index came to 2.66.

In the case of RLLLFSSQIHNNGQSDFRPKNGRH [R4L], the protein stability index turned out to be 2.36.

Consider RLLFFSSQIHNNGQSDFRPKNGRH [R4F], for which the protein stability index was determined as 2.32.

Turning to RLLDFSSQIHNNGQSDFRPKNGRH [R4D], the protein stability index is 3.16.

With RLLCFSSQIHNNGQSDFRPKNGRH [R4C], the protein stability index amounted to 2.87.

For the variant RLLMFSSQIHNNGQSDFRPKNGRH [R4M], the protein stability index was determined as 2.81.

Consider RLLVFSSQIHNNGQSDFRPKNGRH [R4V], for which the protein stability index amounted to 2.62.

Consider RLLKFSSQIHNNGQSDFRPKNGRH [R4K], for which the protein stability index is 2.27.

RLLHFSSQIHNNGQSDFRPKNGRH [R4H]: the protein stability index came to 2.74.

Turning to RLLNFSSQIHNNGQSDFRPKNGRH [R4N], the protein stability index is 3.35.

For RLLIFSSQIHNNGQSDFRPKNGRH [R4I], the protein stability index worked out at 2.48.

As for RLLWFSSQIHNNGQSDFRPKNGRH [R4W], the protein stability index is 2.15.

As to RLLAFSSQIHNNGQSDFRPKNGRH [R4A], the protein stability index came out at 2.87.

On to RLLEFSSQIHNNGQSDFRPKNGRH [R4E], for which the protein stability index stood at 2.87.

Turning to RLLSFSSQIHNNGQSDFRPKNGRH [R4S], the protein stability index was found to be 2.79.

For the variant RLLGFSSQIHNNGQSDFRPKNGRH [R4G], the protein stability index was found to be 3.51.

RLLTFSSQIHNNGQSDFRPKNGRH [R4T]: the protein stability index was found to be 3.09.

As for RLLRFSSQLHNNGQSDFRPKNGRH [I9L], the protein stability index was 2.12.

RLLRFSSQRHNNGQSDFRPKNGRH [I9R]: the protein stability index is 3.24.

Turning to RLLRFSSQYHNNGQSDFRPKNGRH [I9Y], the protein stability index worked out at 2.4.

For the variant RLLRFSSQCHNNGQSDFRPKNGRH [I9C], the protein stability index turned out to be 3.11.

On to RLLRFSSQKHNNGQSDFRPKNGRH [I9K], for which the protein stability index was 2.31.

For RLLRFSSQPHNNGQSDFRPKNGRH [I9P], the protein stability index came to 3.44.

Take RLLRFSSQNHNNGQSDFRPKNGRH [I9N]: the protein stability index came out at 3.19.

As to RLLRFSSQGHNNGQSDFRPKNGRH [I9G], the protein stability index is 3.48.

Take RLLRFSSQTHNNGQSDFRPKNGRH [I9T]: the protein stability index came to 3.14.

In the case of RLLRFSSQHHNNGQSDFRPKNGRH [I9H], the protein stability index was 3.26.

Turning to RLLRFSSQWHNNGQSDFRPKNGRH [I9W], the protein stability index worked out at 2.74.

In the case of RLLRFSSQQHNNGQSDFRPKNGRH [I9Q], the protein stability index is 3.14.

As to RLLRFSSQSHNNGQSDFRPKNGRH [I9S], the protein stability index was 3.04.

Take RLLRFSSQVHNNGQSDFRPKNGRH [I9V]: the protein stability index was 2.99.

Regarding RLLRFSSQMHNNGQSDFRPKNGRH [I9M], the protein stability index amounted to 3.07.

RLLRFSSQFHNNGQSDFRPKNGRH [I9F]: the protein stability index was 2.32.

On to RLLRFSSQEHNNGQSDFRPKNGRH [I9E], for which the protein stability index came out at 3.93.

As for RLLRFSSQDHNNGQSDFRPKNGRH [I9D], the protein stability index was 3.5.

With RLLRFSSQAHNNGQSDFRPKNGRH [I9A], the protein stability index was 2.81.

For RLLRFSSVIHNNGQSDFRPKNGRH [Q8V], the protein stability index amounted to 2.95.

As to RLLRFSSKIHNNGQSDFRPKNGRH [Q8K], the protein stability index was determined as 2.14.

Turning to RLLRFSSTIHNNGQSDFRPKNGRH [Q8T], the protein stability index was found to be 2.67.

Take RLLRFSSFIHNNGQSDFRPKNGRH [Q8F]: the protein stability index came out at 2.07.

As to RLLRFSSLIHNNGQSDFRPKNGRH [Q8L], the protein stability index amounted to 2.29.

In the case of RLLRFSSSIHNNGQSDFRPKNGRH [Q8S], the protein stability index came to 2.73.

On to RLLRFSSPIHNNGQSDFRPKNGRH [Q8P], for which the protein stability index came to 3.54.

For the variant RLLRFSSHIHNNGQSDFRPKNGRH [Q8H], the protein stability index was determined as 2.5.

With RLLRFSSDIHNNGQSDFRPKNGRH [Q8D], the protein stability index worked out at 3.81.

RLLRFSSAIHNNGQSDFRPKNGRH [Q8A]: the protein stability index worked out at 2.94.

For RLLRFSSCIHNNGQSDFRPKNGRH [Q8C], the protein stability index was 2.21.

Take RLLRFSSMIHNNGQSDFRPKNGRH [Q8M]: the protein stability index was 1.95.

As for RLLRFSSIIHNNGQSDFRPKNGRH [Q8I], the protein stability index is 2.23.

As for RLLRFSSRIHNNGQSDFRPKNGRH [Q8R], the protein stability index stood at 2.91.

In the case of RLLRFSSYIHNNGQSDFRPKNGRH [Q8Y], the protein stability index was determined as 2.05.

On to RLLRFSSNIHNNGQSDFRPKNGRH [Q8N], for which the protein stability index turned out to be 2.95.

In the case of RLLRFSSEIHNNGQSDFRPKNGRH [Q8E], the protein stability index is 3.17.

Turning to RLLRFSSGIHNNGQSDFRPKNGRH [Q8G], the protein stability index was 2.87.

Consider RLLRFSSWIHNNGQSDFRPKNGRH [Q8W], for which the protein stability index is 1.77.

As for RLLRESSQIHNNGQSDFRPKNGRH [F5E], the protein stability index was determined as 3.94.

With RLLRRSSQIHNNGQSDFRPKNGRH [F5R], the protein stability index is 3.69.

As to RLLRSSSQIHNNGQSDFRPKNGRH [F5S], the protein stability index worked out at 3.81.

With RLLRCSSQIHNNGQSDFRPKNGRH [F5C], the protein stability index was 3.06.

RLLRDSSQIHNNGQSDFRPKNGRH [F5D]: the protein stability index amounted to 3.84.

As for RLLRMSSQIHNNGQSDFRPKNGRH [F5M], the protein stability index was determined as 2.77.

Consider RLLRPSSQIHNNGQSDFRPKNGRH [F5P], for which the protein stability index came to 3.71.

With RLLRVSSQIHNNGQSDFRPKNGRH [F5V], the protein stability index is 3.74.

As for RLLRTSSQIHNNGQSDFRPKNGRH [F5T], the protein stability index was 3.99.

Consider RLLRISSQIHNNGQSDFRPKNGRH [F5I], for which the protein stability index is 2.72.

For the variant RLLRQSSQIHNNGQSDFRPKNGRH [F5Q], the protein stability index is 3.6.

Turning to RLLRGSSQIHNNGQSDFRPKNGRH [F5G], the protein stability index turned out to be 4.21.

As for RLLRLSSQIHNNGQSDFRPKNGRH [F5L], the protein stability index came to 2.54.

The values above are taken from the supplement of paper PMC10567573.
